Measurements: IntAct's records for PubMed 22668317

B1: LPS-assembly protein LptD (Escherichia coli (strain K12)), P31554 (parent)
chain: MKKRIPTLLATMIATALYSQQGLAADLASQCMLGVPSYDRPLVQGDTNDLPVTINADHAKGDYPDDAVFTGSVDIMQGNSRLQADEVQLHQKEAPGQPEPVRTVDALGNVHYDDNQVILKGPKGWANLNTKDTNVWEGDYQMVGRQGRGKADLMKQRGENRYTILDNGSFTSCLPGSDTWSVVGSEIIHDREEQVAEIWNARFKVGPVPIFYSPYLQLPVGDKRRSGFLIPNAKYTTTNYFEFYLPYYWNIAPNMDATITPHYMHRRGNIMWENEFRYLSQAGAGLMELDYLPSDKVYEDEHPNDDSSRRWLFYWNHSGVMDQVWRFNVDYTKVSDPSYFNDFDNKYGSSTDGYATQKFSVGYAVQNFNATVSTKQFQVFSEQNTSSYSAEPQLDVNYYQNDVGPFDTRIYGQAVHFVNTRDDMPEATRVHLEPTINLPLSNNWGSINTEAKLLATHYQQTNLDWYNSRNTTKLDESVNRVMPQFKVDGKMVFERDMEMLAPGYTQTLEPRAQYLYVPYRDQSDIYNYDSSLLQSDYSGLFRDRTYGGLDRIASANQVTTGVTSRIYDDAAVERFNISVGQIYYFTESRTGDDNITWENDDKTGSLVWAGDTYWRISERWGLRGGIQYDTRLDNVATSNSSIEYRRDEDRLVQLNYRYASPEYIQATLPKYYSTAEQYKNGISQVGAVASWPIADRWSIVGAYYYDTNANKQADSMLGVQYSSCCYAIRVGYERKLNGWDNDKQHAVYDNAIGFNIELRGLSSNYGLGTQEMLRSNILPYQNTL
partner: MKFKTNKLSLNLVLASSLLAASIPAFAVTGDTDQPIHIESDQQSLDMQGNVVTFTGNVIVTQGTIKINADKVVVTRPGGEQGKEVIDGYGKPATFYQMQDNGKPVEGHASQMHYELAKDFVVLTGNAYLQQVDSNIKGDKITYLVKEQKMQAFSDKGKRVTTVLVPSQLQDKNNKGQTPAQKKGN

Variants of: B1
Settings: with lpta_ecoli lptA

effect of a mutation on the interaction	Variant
disrupting interaction	C31S;C725S
disrupting interaction	C31S;C173S
disrupting interaction	C724S;C725S
